For experiment [1], the target named is T1, human DR4 (Death Receptor 4), cell surface expressed on human tumor cell lines (human, UniProt O00220 24-468).
T1 construct: also called TNFRSF10A; TRAIL-R1
T1 sequence: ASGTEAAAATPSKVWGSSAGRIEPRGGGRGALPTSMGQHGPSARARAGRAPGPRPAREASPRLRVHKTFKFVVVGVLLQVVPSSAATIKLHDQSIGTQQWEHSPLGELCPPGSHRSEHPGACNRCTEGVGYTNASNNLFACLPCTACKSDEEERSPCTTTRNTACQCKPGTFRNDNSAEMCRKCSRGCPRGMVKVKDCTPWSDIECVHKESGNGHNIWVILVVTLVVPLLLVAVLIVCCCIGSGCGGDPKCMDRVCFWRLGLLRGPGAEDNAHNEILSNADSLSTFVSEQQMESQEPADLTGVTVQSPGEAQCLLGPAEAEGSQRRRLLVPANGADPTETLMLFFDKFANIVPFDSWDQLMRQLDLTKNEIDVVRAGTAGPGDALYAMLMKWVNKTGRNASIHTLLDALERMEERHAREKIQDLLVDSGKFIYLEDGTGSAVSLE
Description: flow cytometry, HCT-15 cells, average ± SEM; HCT-15 cells, average of n = 3.

Experiment [2] has as its target T2, His-tagged recombinant human FAPα (R&D Systems, Cat #3715-SE) (human, UniProt Q12884 26-760).
T2 construct: not shown: His tag
T2 sequence (looked up): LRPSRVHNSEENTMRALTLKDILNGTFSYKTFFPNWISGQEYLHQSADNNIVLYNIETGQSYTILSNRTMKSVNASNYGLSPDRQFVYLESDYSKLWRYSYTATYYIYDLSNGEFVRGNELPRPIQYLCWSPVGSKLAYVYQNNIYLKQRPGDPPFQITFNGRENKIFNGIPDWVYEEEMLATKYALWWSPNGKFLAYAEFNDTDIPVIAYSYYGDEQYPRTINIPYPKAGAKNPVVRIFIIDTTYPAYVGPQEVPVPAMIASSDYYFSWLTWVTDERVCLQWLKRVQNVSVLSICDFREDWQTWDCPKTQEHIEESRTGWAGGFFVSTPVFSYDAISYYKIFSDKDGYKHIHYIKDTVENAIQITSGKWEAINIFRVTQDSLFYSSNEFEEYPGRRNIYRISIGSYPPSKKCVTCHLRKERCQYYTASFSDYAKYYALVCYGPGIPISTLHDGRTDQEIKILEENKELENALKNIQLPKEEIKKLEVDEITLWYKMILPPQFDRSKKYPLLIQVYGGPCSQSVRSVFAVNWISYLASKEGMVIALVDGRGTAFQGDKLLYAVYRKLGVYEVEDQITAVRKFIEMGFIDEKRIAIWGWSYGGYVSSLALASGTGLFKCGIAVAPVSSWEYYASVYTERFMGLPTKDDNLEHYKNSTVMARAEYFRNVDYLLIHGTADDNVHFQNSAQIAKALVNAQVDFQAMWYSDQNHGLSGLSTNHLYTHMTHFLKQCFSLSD
Description: BLI sandwich cross-block assay. Here is the method: Sandwich cross-block experiments were carried out while shaking at 1,000 RPM at 30° C. […] The activated AR2G sensors were loaded with 10 μg/mL of the first antibody in 10 mM Sodium Acetate pH 6.0 (ForteBio, cat. no. 18-1070) for 600 s and quenched with 1 M ethanolamine pH 8.5 (ForteBio, Cat. #18-1071) for 300 s. After a baseline measurement in Sample Diluent (30 s; FortéBio, Cat. #18-1048), the AR2G biosensors containing immobilized antibodies were loaded for 200 s with His-tagged recombinant human FAPα (R&D Systems, Cat #3715-SE, 100 nM in Sample Diluent) for 200 s. The theoretical molecular mass of His-tagged recombinant human FAPα protein based on the amino acid sequence (86 kDa) was used for calculations. The association (200 s) of a second antibody (5 μg/mL in Sample Diluent) was determined. Sensors were regenerated by exposure to 10 mM glycine pH 2.5 (Riedl-deHaen, Cat. #15527) for 5 s, followed by neutralization in Sample Diluent for 5 s; both steps were repeated twice. Subsequently, the sensors containing immobilized first antibody were used again, starting with the baseline step.
Data were acquired using Data Acquisition Software v9 (ForteBio) and analyzed with Data Analysis HT Software v9 (ForteBio). The Y-axis was aligned to the start of the association step and Savitzky-Golay filtering was applied. […]

Experiment [3] concerns the target T3, FcγRIIIa-F158 (CD16a Protein, Human, Recombinant (ECD, 176 Phe, His & AVI Tag)) (human, UniProt P08637 17-208).
T3 construct: extracellular domain; Bought reagent; not shown: His & AVI tag
Description: SPR (Biacore 8K), His-tagged FcγRIIIa-F158 captured on an anti-His chip, antibody as analyte, endpoint response against concentration. The method, then: Binding of BisG1-FAPα-FERL/DR4-FERR to immobilized human His-tagged FcγRs and FcRn was analyzed by SPR using a Biacore 8K SPR system (Cytiva). To this end, anti-His antibodies were covalently immobilized on the surface of Biacore Series S Sensor Chip CM5 (Cytiva, Cat. #29104988) using the Amine Coupling Kit (Cytiva, Cat. #BR100050) and a His Capture Kit (Cytiva, Cat. #29234602) according to the manufacturer's instructions. To assess antibody binding to immobilized human FcγRs, aliquots of the recombinant His-tagged FcγR proteins (Table 24) were diluted in HBS EP+Buffer pH 7.4 (Cytiva, Cat. #BR100669) and used to capture the FcγR proteins on the surface of the anti-His antibody-coated sensors using a flow rate of 10 μL/min and a contact time of 60 s. Captured levels ranged from 434 to 592 RU. After three start-up cycles of HBS-EP+Buffer, concentration ranges of BisG1-FAPα-FERL/DR4-FERR or IgG1-b12 antibodies (Table 25) were injected to generate binding curves on FcγR-captured sensors (active surface). For each antibody sample, a parallel flow cell without captured FcγRs was included (reference surface), which was used for RU background correction.
All sensorgrams were subtracted by the signal of the third start-up cycle with buffer only (mock analyte). […]

T3 sequence (P08637 17-208): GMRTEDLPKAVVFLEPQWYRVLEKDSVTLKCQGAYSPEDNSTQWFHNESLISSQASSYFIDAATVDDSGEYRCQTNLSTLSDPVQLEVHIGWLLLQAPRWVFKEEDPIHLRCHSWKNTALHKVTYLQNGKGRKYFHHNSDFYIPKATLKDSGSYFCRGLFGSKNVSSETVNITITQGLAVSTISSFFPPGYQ

B1: IgG1-DR4-FERR (antibody, V domains shown)
VH: QVQLQESGPGLVKPSGTLSLTCAVSGGSISSYSWWSWIRQPPGKGLEWIGELYHSGSTNYNPSLKSRVTISVDKSKNQFSLKLRSVTAADTAVYYCVRGVATIDYWGQGTLVTVSS
VL: QSALTQPPSASGSPGQSVTISCTGTSSDVGGYNFVSWYQQDPGKAPKLLIYEVTKRPSGVPDRFSGSKSGNTASLTVSGLQAEDEADYYCSSYAGSNNVMFGGGTKLTVLG
notes: Bivalent monoclonal IgG1 lambda
As to B1, the EC50 in experiment [1] was 0.17 µg/mL.

B2: IgG1-b12 (antibody)
heavy: not shown
light: EIVLTQSPGTLSLSPGERATFSCRSSHSIRSRRVAWYQHKPGQAPRLVIHGVSNRASGISDRFSGSGSGTDFTLTITRVEPEDFALYYCQVYGASSYTFGQGTKLERKRTVAAPSVFIFPPSDEQLKSGTASVVCLLNNFYPREAKVQWKVDNALQSGNSQESVTEQDSKDSTYSLSSTLTLSKADYEKHKVYACEVTHQGLSSPVTKSFNRGEC
notes: HIV gp120 antibody b12 with wild-type IgG1 Fc; also called IgG-b12
For B2, the binding result in experiment [2] is listed as “no binding”; in experiment [3], “binds”.

For the origin of these results see patent publication US20250002610A1 (Genmab, published 2025).
